Laboratory results from patent publication US20200407419A1 (LONZA SALES, published 2020).

Legend:
CD40 on human B-cells = CD40 on human B-cells (human, UniProt P25942 21-277); experiment: cell-based or functional assay
[1] = target: IL-7 receptor (IL-7R) on PBMCs (UniProt P16871); experiment: cell-based or functional assay
IL-7 receptor (IL-7R) on PBMCs, sequence (P16871 21-459 limits assumed): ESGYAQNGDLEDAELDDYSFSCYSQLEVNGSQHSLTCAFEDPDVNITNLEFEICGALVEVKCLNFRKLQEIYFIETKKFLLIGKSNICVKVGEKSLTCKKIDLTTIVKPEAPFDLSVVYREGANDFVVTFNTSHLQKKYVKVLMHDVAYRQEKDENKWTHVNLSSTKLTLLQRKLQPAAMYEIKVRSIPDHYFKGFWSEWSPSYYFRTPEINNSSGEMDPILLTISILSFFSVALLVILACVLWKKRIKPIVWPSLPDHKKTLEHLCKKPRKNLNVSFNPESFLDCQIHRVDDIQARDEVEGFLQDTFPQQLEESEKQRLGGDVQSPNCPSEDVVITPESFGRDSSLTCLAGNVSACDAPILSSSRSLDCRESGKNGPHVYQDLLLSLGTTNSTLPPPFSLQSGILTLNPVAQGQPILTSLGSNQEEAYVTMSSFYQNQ

CD40 on human B-cells, sequence (P25942 21-277): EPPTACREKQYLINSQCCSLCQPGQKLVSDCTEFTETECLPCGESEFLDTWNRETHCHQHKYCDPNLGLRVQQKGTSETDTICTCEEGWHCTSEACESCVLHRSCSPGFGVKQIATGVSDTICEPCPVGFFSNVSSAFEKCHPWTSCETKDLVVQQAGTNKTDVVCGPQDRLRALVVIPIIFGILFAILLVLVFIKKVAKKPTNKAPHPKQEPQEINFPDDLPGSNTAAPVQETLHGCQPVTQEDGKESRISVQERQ

Row | EC50 of B-cell activation (CD69 positivity on B-cells), ng/mL of CD40L (CD40 on human B-cells) | EC50 of B-cell activation (CD69 positivity on B-cells), particles/mL (CD40 on human B-cells) | IC50 (p/ml) of reduction of IL-7R levels on PBMCs [1] | Molecule
1 | 1.89 ng/mL | 4.53e+08 particles/mL | – | exosomes with trimeric CD40L-PTGFRN construct pCB-527 (PTGFRN-trimeric CD40L-GFP) (ligand)
2 | – | – | 1.1e+11 p/ml | IL-7 exosomes from the pDisplay plasmid encoding a fusion of IL-7 and PDGF Receptor (ligand)
3 | 28.5 ng/mL | – | – | recombinant human CD40L (Biolegend, Catalog No. 591702) (from UniProt P29965 113-261) (ligand)
4 | 1.68 ng/mL | 6.63e+08 particles/mL | – | exosomes with trimeric CD40L-PTGFRN construct pCB-766 (tag-less, lacking the C-terminal GFP) (ligand) MQKGDQNPQIAAHVISEASSKTTSVLQWAEKGYYTMSNNLVTLENGKQLTVKRQGLYYIYAQVTFCSNREASSQAPFIASLCLKSPGRFERILLRAANTHSSAKPCGQQSIHLGGVFELQPGASVFVNVTDPSQVSHGTGFTSFGLLKLGSGGSGGSGGSGMQKGDQNPQIAAHVISEASSKTTSVLQWAEKGYYTMSNNLVTLENGKQLTVKRQGLYYIYAQVTFCSNREASSQAPFIASLCLKSPGRFERILLRAANTHSSAKPCGQQSIHLGGVFELQPGASVFVNVTDPSQVSHGTGFTSFGLLKLGSGGSGGSGGSGMQKGDQNPQIAAHVISEASSKTTSVLQWAEKGYYTMSNNLVTLENGKQLTVKRQGLYYIYAQVTFCSNREASSQAPFIASLCLKSPGRFERILLRAANTHSSAKPCGQQSIHLGGVFELQPGASVFVNVTDPSQVSHGTGFTSFGLLKLSAGGGGSGGGGSRVVRVPTATLVRVVGTELVIPCNVSDYDGPSEQNFDWSFSSLGSSFVELASTWEVGFPAQLYQERLQRGEILLRRTANDAVELHIKNVQPSDQGHYKCSTPSTDATVQGNYEDTVQVKVLADSLHVGPSARPPPSLSLREGEPFELRCTAASASPLHTHLALLWEVHRGPARRSVLALTHEGRFHPGLGYEQRYHSGDVRLDTVGSDAYRLSVSRALSADQGSYRCIVSEWIAEQGNWQEIQEKAVEVATVVIQPSVLRAAVPKNVSVAEGKELDLTCNITTDRADDVRPEVTWSFSRMPDSTLPGSRVLARLDRDSLVHSSPHVALSHVDARSYHLLVRDVSKENSGYYYCHVSLWAPGHNRSWHKVAEAVSSPAGVGVTWLEPDYQVYLNASKVPGFADDPTELACRVVDTKSGEANVRFTVSWYYRMNRRSDNVVTSELLAVMDGDWTLKYGERSKQRAQDGDFIFSKEHTDTFNFRIQRTTEEDRGNYYCVVSAWTKQRNNSWVKSKDVFSKPVNIFWALEDSVLVVKARQPKPFFAAGNTFEMTCKVSSKNIKSPRYSVLIMAEKPVGDLSSPNETKYIISLDQDSVVKLENWTDASRVDGVVLEKVQEDEFRYRMYQTQVSDAGLYRCMVTAWSPVRGSLWREAATSLSNPIEIDFQTSGPIFNASVHSDTPSVIRGDLIKLFCIITVEGAALDPDDMAFDVSWFAVHSFGLDKAPVLLSSLDRKGIVTTSRRDWKSDLSLERVSVLEFLLQVHGSEDQDFGNYYCSVTPWVKSPTGSWQKEAEIHSKPVFITVKMDVLNAFKYPLLIGVGLSTVIGLLSCLIGYCSSHWCCKKEVQETRRERRRLMSMEMD
